Target: the molecule itself
Assay: crystal structure

B1: BT_1526 myo-inositol phosphate synthase (MIPS) of Bacteroides thetaiotaomicron VPI-5482 (enzyme, UniProt Q8A7J8 1-429, looked up)
chain: MKQEIKPATGRLGVLVVGVGGAVATTMIVGTLASRKGLAKPIGSITQLATMRMENNEEKLIKDVVPLTDLNDIVFGGWDIFPDNAYEAAMYAEVLKEKDLNGVKDELEAIKPMPAAFDHNWAKRLNGTHIKKAATRWEMVEQLRQDIRDFKAANNCERVVVLWAASTEIYIPLSDEHMSLAALEKAMKDNNTEVISPSMCYAYAAIAEDAPFVMGAPNLCVDTPAMWEFSKQKNVPISGKDFKSGQTLMKTVLAPMFKTRMLGVNGWFSTNILGNRDGEVLDDPDNFKTKEVSKLSVIDTIFEPEKYPDLYGDVYHKVRINYYPPRKDNKEAWDNIDIFGWMGYPMEIKVNFLCRDSILAAPIALDLVLFSDLAMRAGMCGIQTWLSFFCKSPMHDFEHQPEHDLFTQWRMVKQTLRNMIGEKEPDYLA
In the case of B1, the “stoichiometry N” value is reported as 4.

Reference: doi:10.1101/2021.04.26.441525 (bioRxiv, 2021)
